Substitutions are numbered along the chain they refer to. In names and notes the source's numbering stands.

The results in this text go back to doi:10.1101/2025.01.26.634952 (bioRxiv, 2025).

This data set concerns the molecule itself. The data set can be described thus: SAXS.

B1: SmFtsZ-WT (full-length Streptococcus mutans FtsZ) (natural protein)
chain: MAFSFDAASVQGAVIKVIGVGGGGGNAINRMIDEGVAGVEFIAANTDIQALSSSKAETVIQLGPKLTRGLGAGGQPEIGRKAAEESEEALTEALTGADMVFITAGMGGGSGTGAAPVIARIAKGLGSLTVAVVTRPFGFEGSKRGNYAIEGINELRDEVDTLLIISNNNLLEIVDKKTPLLEALSEADNVLRQGVQGITDLITSPGLINLDFADVKTVMASKGNALMGIGIGTGEERVVEAARKAIYSPLLETTIDGAEDVIVNVTGGLDMTLTEAEEASEIVNQAAGHGVNIWLGTSIDDSMKDEIRVTVVATGVRPDKADQVSGIRRQASSYTQPRAQQQAPSSNSAQPNFERRQNFDFDLNESPEMPAAEPQQTQSSSEPQQSAFGDWNLRRENIARPTEGEIDSQLKMSSFSADSDDDDELETPPFFKNR
In the case of B1, the binding result is reported as “binds”.

B2: SmFtsZ-R68A (natural protein)
chain: B1 chain with R68A
As to B2, the binding result is recorded as “binds”.
